Measurements published in IntAct's records for PubMed 21808041.

B1: Non-structural protein 1 (Influenza B virus (strain B/Lee/1940)), P03502 (parent)
chain: MADNMTTTQIEVGPGATNATINFEAGILECYERFSWQRALDYPGQDRLHRLKRKLESRIKTHNKSEPENKRMSLEERKAIGVKMMKVLLFMDPSAGIEGFEPYCVKNPSTSKCPNYDWTDYPPTPGKYLDDIEEEPENVDHPIEVVLRDMNNKDARQKIKDEVNTQKEGKFRLTIKRDIRNVLSLRVLVNGTFLKHPNGDKSLSTLHRLNAYDQNGGLVAKLVATDDRTVEDEKDGHRILNSLFERFDEGHSKPIRAAETAVGVLSQFGQEHRLSPEEGDN

Variants of: B1
Settings: with isg15_human ISG15, P05161
Sequence of isg15_human ISG15, P05161 (P05161 whole entry): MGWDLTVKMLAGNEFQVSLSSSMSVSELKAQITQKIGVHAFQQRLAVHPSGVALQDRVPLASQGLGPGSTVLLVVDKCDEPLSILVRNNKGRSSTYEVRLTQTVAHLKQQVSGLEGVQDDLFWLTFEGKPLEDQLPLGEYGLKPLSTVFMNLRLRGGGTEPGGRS

Variant | effect of a mutation on the interaction
W36A;Q37A | disrupting interaction strength
M91A;F100A | decreasing interaction strength
